Results from patent US20240117019A1.

What was measured:
[1] = biological target: PhtD 1-170 (Streptococcus pneumoniae); assay: ELISA on coated MBP-PhtD fragment, OD405
[2] = biological target: PhtD 1-343 (Streptococcus pneumoniae); assay: ELISA on coated MBP-PhtD fragment, OD405
[3] = biological target: PhtD 168-343 (Streptococcus pneumoniae); assay: ELISA on coated MBP-PhtD fragment, OD405
[4] = biological target: PhtD, serotype 9N (Streptococcus pneumoniae); assay: flow cytometry on whole bacteria, serotype 9N, mAb 10 µg/ml, APC anti-human IgG Fc; no mAb 1.5
[5] = biological target: recombinant His-tagged full-length pneumococcal histidine triad protein D (PhtD) from strain TCH8431 (serotype 19A) (Streptococcus pneumoniae strain TCH8431 (serotype 19A)); assay: ELISA on coated recombinant PhtD, OD405
[6] = biological target: recombinant His-tagged full-length pneumococcal histidine triad protein D (PhtD) from strain TCH8431 (serotype 19A) (Streptococcus pneumoniae strain TCH8431 (serotype 19A)); assay: competitive BLI, His-tagged PhtD on anti-penta-HIS tips; first mAb PhtD7, then second mAb, each 100 µg/mL; white cell
[7] = biological target: recombinant His-tagged full-length pneumococcal histidine triad protein D (PhtD) from strain TCH8431 (serotype 19A) (Streptococcus pneumoniae strain TCH8431 (serotype 19A)); assay: ELISA on coated recombinant PhtD, non-linear regression fit
[8] = biological target: recombinant His-tagged full-length pneumococcal histidine triad protein D (PhtD) from strain TCH8431 (serotype 19A) (Streptococcus pneumoniae strain TCH8431 (serotype 19A)); assay: competitive BLI, His-tagged PhtD on anti-penta-HIS tips; first mAb PhtD3, then second mAb, each 100 µg/mL; black cell
[9] = biological target: PhtD protein of pneumococcal strain TCH8431 (serotype 19A), native, in bacterial lysates (Streptococcus pneumoniae strain TCH8431 (serotype 19A)); assay: flow cytometry on whole bacteria, 19A (TCH8431), mAb 10 µg/ml, APC anti-human IgG Fc; no mAb 0.4
[10] = biological target: PhtD, WU2 (3) (Streptococcus pneumoniae); assay: flow cytometry on whole bacteria, 3 (WU2), mAb 10 µg/ml, APC anti-human IgG Fc; no mAb 1.3
[11] = biological target: PhtD protein of pneumococcal strain TIGR4 (serotype 4), native, in bacterial lysates (Streptococcus pneumoniae strain TIGR4 (serotype 4)); assay: flow cytometry on whole bacteria, 4 (TIGR4), mAb 10 µg/ml, APC anti-human IgG Fc; no mAb 0.1
[12] = biological target: PhtD, serotype 2 (Streptococcus pneumoniae); assay: flow cytometry on whole bacteria, serotype 2, mAb 10 µg/ml, APC anti-human IgG Fc; no mAb 0.6
[13] = biological target: recombinant His-tagged full-length pneumococcal histidine triad protein D (PhtD) from strain TCH8431 (serotype 19A) (Streptococcus pneumoniae strain TCH8431 (serotype 19A)); assay: competitive BLI, His-tagged PhtD on anti-penta-HIS tips; first mAb PhtD8, then second mAb, each 100 µg/mL; white cell
[14] = biological target: PhtD, serotype 6D (Streptococcus pneumoniae); assay: flow cytometry on whole bacteria, serotype 6d, mAb 10 µg/ml, APC anti-human IgG Fc; no mAb 0.4
[15] = biological target: PhtD, serotype 6C (Streptococcus pneumoniae); assay: flow cytometry on whole bacteria, serotype 6c, mAb 10 µg/ml, APC anti-human IgG Fc; no mAb 1.3
[16] = biological target: PhtD, serotype 12F (Streptococcus pneumoniae); assay: flow cytometry on whole bacteria, serotype 12F, mAb 10 µg/ml, APC anti-human IgG Fc; no mAb 0.3
[17] = biological target: PhtD, serotype 11A (Streptococcus pneumoniae); assay: flow cytometry on whole bacteria, serotype 11A, mAb 10 µg/ml, APC anti-human IgG Fc; no mAb 0.6
[18] = biological target: recombinant His-tagged full-length pneumococcal histidine triad protein D (PhtD) from strain TCH8431 (serotype 19A) (Streptococcus pneumoniae strain TCH8431 (serotype 19A)); assay: competitive BLI, His-tagged PhtD on anti-penta-HIS tips; first mAb PhtD6, then second mAb, each 100 µg/mL; grey cell

Row | Binder | EC50 (read off the curve) [1] [µg/mL] | EC50 (read off the curve) [2] [µg/mL] | EC50 (read off the curve) [3] [µg/mL] | % APC+ [4] [%] | EC50 (read off the curve) [5] [µg/mL] | percent binding of the second mAb in the presence of the first mAb [6] [%] | EC50 [7] [µg/mL] | percent binding of the second mAb in the presence of the first mAb [8] [%] | % APC+ [9] [%] | % APC+ [10] [%] | % APC+ [11] [%] | % APC+ [12] [%] | percent binding of the second mAb in the presence of the first mAb [13] [%] | % APC+ [14] [%] | % APC+ [15] [%] | % APC+ [16] [%] | % APC+ [17] [%] | percent binding of the second mAb in the presence of the first mAb [18] [%]
1 | human monoclonal antibody PhtD3 (antibody, V domains shown) VH: QVQLVQSGPDVKKPGSSVKVSCKASGAAFESFAFAWVRQAPGQGFEWMGRIIPILETRDYAEKFQGRMTMTTDESTATAYMELNSLRFEDTAVYFCARDGHIMRTTLSDAALDVWGQGTTVIVSS VL: DIVMTQSPVTLSLSPGERATLSCRASQSLTDNYLAWYQQKPGQAPRLLIYAASTRATGIPDRISGSGSGTDFTLTISRVEPEDFAMFYCQQYQNSPFTFGGGTTVEIK | 0.1 | 0.1 | 0.1 | 28.1 | 0.1 | 81 | 0.045 | 9 | 18.3 | 16 | 7.2 | 3.2 | 77 | 2.4 | 4.2 | 45.8 | 19.6 | 47
2 | PhtD3-IgG2a (recombinant chimera of mAb PhtD3 with a mouse IgG2a Fc region) (antibody, V domains shown) VH: QVQLVQSGPDVKKPGSSVKVSCKASGAAFESFAFAWVRQAPGQGFEWMGRIIPILETRDYAEKFQGRMTMTTDESTATAYMELNSLRFEDTAVYFCARDGHIMRTTLSDAALDVWGQGTTVIVSS VL: DIVMTQSPVTLSLSPGERATLSCRASQSLTDNYLAWYQQKPGQAPRLLIYAASTRATGIPDRISGSGSGTDFTLTISRVEPEDFAMFYCQQYQNSPFTFGGGTTVEIK |  |  |  |  | 0.05 |  |  |  |  |  |  |  |  |  |  |  |  | 
